Data taken from the supplement of paper PMC9112550, “Optimization of the antimicrobial peptide Bac7 by deep mutational scanning” (BMC Biology, 2022).

System: Escherichia coli TOP10
Assay: shrunken log2 fold change of peptide-encoding DNA abundance (4.5 h post-induction vs induction); higher = less antimicrobial activity (less host growth inhibition)
Details: time post-induction: 4.5 h; library: site-saturation at positions 5, 18, 19, 20
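Note: peptides expressed intracellularly from a pBAD plasmid library in pooled LB shake-flask culture, induced with 0.3% L-arabinose, DNA abundance read by NGS, three biological replicates, DESeq2 with apeglm shrinkage.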

Row | Sequence | shrunken log2 fold change
1 | RRIRVRPPRLPRPRPRPNMFPRP | -0.103
2 | RRIRVRPPRLPRPRPRPNMHPRP | -0.332
3 | RRIRVRPPRLPRPRPRPNNLPRP | -0.534
4 | RRIRVRPPRLPRPRPRPNPAPRP | 0.31
5 | RRIRVRPPRLPRPRPRPNPCPRP | -0.461
6 | RRIRVRPPRLPRPRPRPNPTPRP | -0.325
7 | RRIRVRPPRLPRPRPRPNRDPRP | -0.0911
8 | RRIRVRPPRLPRPRPRPNSEPRP | -0.43
9 | RRIRVRPPRLPRPRPRPNSFPRP | -0.0668
10 | RRIRVRPPRLPRPRPRPNWCPRP | -0.00931
11 | RRIRVRPPRLPRPRPRPNWIPRP | -0.29
12 | RRIRVRPPRLPRPRPRPNYFPRP | -0.303
13 | RRIRVRPPRLPRPRPRPNYMPRP | -0.923
14 | RRIRVRPPRLPRPRPRPNYPPRP | -0.515
15 | RRIRVRPPRLPRPRPRPNYSPRP | -0.438
16 | RRIRVRPPRLPRPRPRPPASPRP | 0.398
17 | RRIRVRPPRLPRPRPRPPCCPRP | 0.117
18 | RRIRVRPPRLPRPRPRPPDEPRP | 0.621
19 | RRIRVRPPRLPRPRPRPPDIPRP | 0.248
20 | RRIRVRPPRLPRPRPRPPEFPRP | 0.265
21 | RRIRVRPPRLPRPRPRPPEQPRP | 0.0662
22 | RRIRVRPPRLPRPRPRPPGAPRP | 0.595
23 | RRIRVRPPRLPRPRPRPPGSPRP | 0.342
24 | RRIRVRPPRLPRPRPRPPHVPRP | 0.283
25 | RRIRVRPPRLPRPRPRPPIDPRP | 0.0721

Row | Sequence | shrunken log2 fold change
26 | RRIRVRPPRLPRPRPRPPIFPRP | -0.067
27 | RRIRVRPPRLPRPRPRPPITPRP | -0.117
28 | RRIRVRPPRLPRPRPRPPKVPRP | 0.392
29 | RRIRVRPPRLPRPRPRPPLIPRP | 1.02
30 | RRIRVRPPRLPRPRPRPPMGPRP | 0.254
31 | RRIRVRPPRLPRPRPRPPMMPRP | -0.0474
32 | RRIRVRPPRLPRPRPRPPNDPRP | -0.17
33 | RRIRVRPPRLPRPRPRPPNHPRP | -0.0404
34 | RRIRVRPPRLPRPRPRPPNYPRP | -0.194
35 | RRIRVRPPRLPRPRPRPPRPPRP | 0.648
36 | RRIRVRPPRLPRPRPRPPSRPRP | 0.743
37 | RRIRVRPPRLPRPRPRPPTCPRP | 0.141
38 | RRIRVRPPRLPRPRPRPPVPPRP | 0.35
39 | RRIRVRPPRLPRPRPRPPYRPRP | -0.0303
40 | RRIRVRPPRLPRPRPRPPYSPRP | -0.384
41 | RRIRVRPPRLPRPRPRPQACPRP | 1.56
42 | RRIRVRPPRLPRPRPRPQAGPRP | 0.0465
43 | RRIRVRPPRLPRPRPRPQCLPRP | -0.0868
44 | RRIRVRPPRLPRPRPRPQDCPRP | -0.172
45 | RRIRVRPPRLPRPRPRPQDHPRP | -0.253
46 | RRIRVRPPRLPRPRPRPQDTPRP | -0.64
47 | RRIRVRPPRLPRPRPRPQEHPRP | -0.251
48 | RRIRVRPPRLPRPRPRPQFNPRP | -0.389
49 | RRIRVRPPRLPRPRPRPQFYPRP | -0.806
50 | RRIRVRPPRLPRPRPRPQHCPRP | 0.0856

Row | Sequence | shrunken log2 fold change
51 | RRIRVRPPRLPRPRPRPQHRPRP | 0.0105
52 | RRIRVRPPRLPRPRPRPQIRPRP | -0.305
53 | RRIRVRPPRLPRPRPRPQKCPRP | -0.0983
54 | RRIRVRPPRLPRPRPRPQLLPRP | -0.0606
55 | RRIRVRPPRLPRPRPRPQLSPRP | 0.132
56 | RRIRVRPPRLPRPRPRPQMHPRP | -0.175
57 | RRIRVRPPRLPRPRPRPQMIPRP | -0.425
58 | RRIRVRPPRLPRPRPRPQNFPRP | -0.0453
59 | RRIRVRPPRLPRPRPRPQRFPRP | -0.163
60 | RRIRVRPPRLPRPRPRPQRIPRP | -0.544
61 | RRIRVRPPRLPRPRPRPQRLPRP | 0.275
62 | RRIRVRPPRLPRPRPRPQRNPRP | -0.0128
63 | RRIRVRPPRLPRPRPRPQSHPRP | -0.613
64 | RRIRVRPPRLPRPRPRPQTAPRP | 0.0297
65 | RRIRVRPPRLPRPRPRPQTIPRP | -0.127
66 | RRIRVRPPRLPRPRPRPQTKPRP | 0.0433
67 | RRIRVRPPRLPRPRPRPQTMPRP | -0.689
68 | RRIRVRPPRLPRPRPRPQWAPRP | -0.0201
69 | RRIRVRPPRLPRPRPRPQWRPRP | -0.0106
70 | RRIRVRPPRLPRPRPRPQYWPRP | -0.265
71 | RRIRVRPPRLPRPRPRPRCMPRP | -0.23
72 | RRIRVRPPRLPRPRPRPRCRPRP | -0.0394
73 | RRIRVRPPRLPRPRPRPRDDPRP | -0.104
74 | RRIRVRPPRLPRPRPRPRDEPRP | 2.79
75 | RRIRVRPPRLPRPRPRPRDGPRP | 1.09

Row | Sequence | shrunken log2 fold change
76 | RRIRVRPPRLPRPRPRPRDRPRP | 0.46
77 | RRIRVRPPRLPRPRPRPREKPRP | 0.179
78 | RRIRVRPPRLPRPRPRPRFCPRP | -0.0488
79 | RRIRVRPPRLPRPRPRPRFMPRP | -0.459
80 | RRIRVRPPRLPRPRPRPRGDPRP | 0.754
81 | RRIRVRPPRLPRPRPRPRITPRP | -0.11
82 | RRIRVRPPRLPRPRPRPRKEPRP | -0.0286
83 | RRIRVRPPRLPRPRPRPRKWPRP | 0.474
84 | RRIRVRPPRLPRPRPRPRLIPRP | -0.293
85 | RRIRVRPPRLPRPRPRPRMYPRP | -0.882
86 | RRIRVRPPRLPRPRPRPRNGPRP | 0.0197
87 | RRIRVRPPRLPRPRPRPRPEPRP | 0.609
88 | RRIRVRPPRLPRPRPRPRRCPRP | -0.0137
89 | RRIRVRPPRLPRPRPRPRSEPRP | -0.14
90 | RRIRVRPPRLPRPRPRPRSGPRP | 0.322
91 | RRIRVRPPRLPRPRPRPRSNPRP | 0.125
92 | RRIRVRPPRLPRPRPRPRSQPRP | 0.25
93 | RRIRVRPPRLPRPRPRPRSVPRP | 0.0756
94 | RRIRVRPPRLPRPRPRPRTHPRP | 0.199
95 | RRIRVRPPRLPRPRPRPRTIPRP | -0.0961
96 | RRIRVRPPRLPRPRPRPRTMPRP | 0.0485
97 | RRIRVRPPRLPRPRPRPRTSPRP | 0.0612
98 | RRIRVRPPRLPRPRPRPRVCPRP | 0.165
99 | RRIRVRPPRLPRPRPRPRVRPRP | 0.363
100 | RRIRVRPPRLPRPRPRPRVTPRP | 0.274

Row | Sequence | shrunken log2 fold change
101 | RRIRVRPPRLPRPRPRPRWKPRP | 0.328
102 | RRIRVRPPRLPRPRPRPRWPPRP | 0.534
103 | RRIRVRPPRLPRPRPRPRYQPRP | 0.171
104 | RRIRVRPPRLPRPRPRPRYTPRP | 0.0365
105 | RRIRVRPPRLPRPRPRPSAYPRP | -0.34
106 | RRIRVRPPRLPRPRPRPSCLPRP | -0.618
107 | RRIRVRPPRLPRPRPRPSDKPRP | -0.153
108 | RRIRVRPPRLPRPRPRPSDQPRP | -0.669
109 | RRIRVRPPRLPRPRPRPSDYPRP | -0.673
110 | RRIRVRPPRLPRPRPRPSFGPRP | -0.463
111 | RRIRVRPPRLPRPRPRPSFPPRP | -0.627
112 | RRIRVRPPRLPRPRPRPSGCPRP | -0.194
113 | RRIRVRPPRLPRPRPRPSGYPRP | -0.28
114 | RRIRVRPPRLPRPRPRPSILPRP | -0.312
115 | RRIRVRPPRLPRPRPRPSIQPRP | -0.321
116 | RRIRVRPPRLPRPRPRPSISPRP | -0.357
117 | RRIRVRPPRLPRPRPRPSIYPRP | -0.482
118 | RRIRVRPPRLPRPRPRPSKWPRP | -0.283
119 | RRIRVRPPRLPRPRPRPSLAPRP | -0.0683
120 | RRIRVRPPRLPRPRPRPSMEPRP | -0.159
121 | RRIRVRPPRLPRPRPRPSMGPRP | -0.399
122 | RRIRVRPPRLPRPRPRPSPEPRP | -0.142
123 | RRIRVRPPRLPRPRPRPSPFPRP | -0.442
124 | RRIRVRPPRLPRPRPRPSPMPRP | -0.261
125 | RRIRVRPPRLPRPRPRPSPSPRP | -0.017

Row | Sequence | shrunken log2 fold change
126 | RRIRVRPPRLPRPRPRPSRPPRP | 0.196
127 | RRIRVRPPRLPRPRPRPSRYPRP | -0.0975
128 | RRIRVRPPRLPRPRPRPSTFPRP | -0.479
129 | RRIRVRPPRLPRPRPRPSTSPRP | -0.0898
130 | RRIRVRPPRLPRPRPRPSTVPRP | -0.0673
131 | RRIRVRPPRLPRPRPRPSWWPRP | 0.0465
132 | RRIRVRPPRLPRPRPRPSYMPRP | -1.16
133 | RRIRVRPPRLPRPRPRPTADPRP | 0.27
134 | RRIRVRPPRLPRPRPRPTASPRP | 0.541
135 | RRIRVRPPRLPRPRPRPTAVPRP | 0.327
136 | RRIRVRPPRLPRPRPRPTCEPRP | 0.243
137 | RRIRVRPPRLPRPRPRPTCLPRP | 0.332
138 | RRIRVRPPRLPRPRPRPTCWPRP | 0.835
139 | RRIRVRPPRLPRPRPRPTDIPRP | -0.402
140 | RRIRVRPPRLPRPRPRPTDMPRP | -0.234
141 | RRIRVRPPRLPRPRPRPTDSPRP | -0.115
142 | RRIRVRPPRLPRPRPRPTEGPRP | 0.0116
143 | RRIRVRPPRLPRPRPRPTELPRP | 0.324
144 | RRIRVRPPRLPRPRPRPTEMPRP | -0.0269
145 | RRIRVRPPRLPRPRPRPTESPRP | -0.00266
146 | RRIRVRPPRLPRPRPRPTEVPRP | 0.0934
147 | RRIRVRPPRLPRPRPRPTFSPRP | -0.3
148 | RRIRVRPPRLPRPRPRPTFWPRP | 0.3
149 | RRIRVRPPRLPRPRPRPTGHPRP | 0.0149
150 | RRIRVRPPRLPRPRPRPTGLPRP | 0.000711
